Source: patent publication EP2078531A2
“And” between values parts separate entries of the source, which are not always exact repeats. Equal entries are not always repeated.

Target: T1, Human recombinant platelet factor-4 (human) (UniProt P02776)
T1 sequence (looked up): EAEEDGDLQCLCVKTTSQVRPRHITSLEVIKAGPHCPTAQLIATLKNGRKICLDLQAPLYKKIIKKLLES
Test: PF4-sepharose affinity column, HUVEC conditioned medium

LOR-1 (from UniProt Q9Y4K0 26-774) (enzyme)
NaCl concentration at elution from the PF4 column: 0.4 M NaCl and 0.5 M NaCl
